Measured values published in the supplement of paper PMC9732359.
± gives the uncertainty stated by the source.

Assay: protein stability index of a GFP-peptide fusion (yeast GPS) (PSI 1-4); higher = more stable; sorted into four equal gates, so the index is relative within each strain
Procedure, shortened: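 For each peptide, the protein stability index sums the read frequency in every gate after multiplying it by the gate number. Read frequencies came from plasmids that were PCR-amplified from each gate and Illumina-sequenced, with reads assigned to strains by barcodes. The gates were four equal bins of GFP/Cherry fluorescence ratio applied to mid-log yeast in leucine-free medium carrying a pooled library of tiled 17-residue yeast protein peptides fused downstream of GFP on a Cherry-expressing plasmid.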

Sequence | protein stability index (doa10∆) | protein stability index (pdr5∆) | protein stability index (san1∆) | protein stability index (ubr1∆)
KKSVNKLDKQINMADRS [POP6] | 2.73 ± 0.062 | 2.94 ± 0.08 | 2.63 ± 0.079 | 2.83 ± 0.054
PPGTGKTLCARAVANRT [RPT1] | 1.26 ± 0.1 | 1.25 ± 0.19 | 1.37 ± 0.18 | 1.27 ± 0.12
RENIAMLKRFFPGVKGL [SMC1] | 2.5 ± 0.17 | 2.49 ± 0.2 | 2.01 ± 0.13 | 2.43 ± 0.15
DRINYTETALMNLKKEL [SRB5] | 3.14 ± 0.14 | 3.28 ± 0.16 | 3.41 ± 0.088 | 3.18 ± 0.095
DDFLSKKRKAGRPRGRP [SNF2] | 3.25 ± 0.3 | 3.1 ± 0.12 | 2.96 ± 0.2 | 2.89 ± 0.1
KPAFSFGAKSDEKKDSD [YJL041W/NSP1] | 3.35 ± 0.087 | 3.25 ± 0.069 | 3.21 ± 0.058 | 3.46 ± 0.056
SLQDNSAAINNEDARAI [RPN4] | 3.12 ± 0.078 | 3.19 ± 0.057 | 2.94 ± 0.055 | 3.18 ± 0.05
NHSNNDIPTIADEHFWA [BRN1] | 3.38 ± 0.099 | 3.11 ± 0.077 | 3.2 ± 0.059 | 3.24 ± 0.036
EVFSRPEWMILTCLPVP [RPO21] | 1.42 ± 0.12 | 1.48 ± 0.12 | 1.51 ± 0.14 | 1.67 ± 0.063
KMIDFATLSKLKKKYQI [SIR3] | 2.9 ± 0.11 | 3.35 ± 0.1 | 3.53 ± 0.051 | 3.47 ± 0.048
IQWYKSLLEKDIDAVNG [ISW2] | 2.73 ± 0.085 | 3.02 ± 0.075 | 2.81 ± 0.2 | 2.82 ± 0.055
ADDVFTGTGLQDENIGL [RPC31] | 3.46 ± 0.11 | 3.44 ± 0.096 | 3.21 ± 0.057 | 3.33 ± 0.07
NTFQKTVEPVYQMHIKT [FAS1] | 1.68 ± 0.038 | 1.78 ± 0.046 | 1.58 ± 0.062 | 1.5 ± 0.059
LEEVEGSCTGKFGYILC [RPB7] | 2.14 ± 0.067 | 2.56 ± 0.057 | 2.1 ± 0.066 | 2.21 ± 0.046
SSVFLPSRKDCMEVASA [BRR2] | 2.73 ± 0.063 | 3.4 ± 0.077 | 3.33 ± 0.066 | 3.19 ± 0.059
SYLISHKDSFYDRATLT [RPO31] | 2.43 ± 0.073 | 2.6 ± 0.067 | 2.21 ± 0.065 | 2.35 ± 0.072
VDTLHNKEGTLEQREQN [SSN2] | 3.14 ± 0.15 | 3.47 ± 0.099 | 3.21 ± 0.058 | 3.35 ± 0.081
STDELVGSPLTVSILQE [POP8] | 2.08 ± 0.084 | 2.62 ± 0.11 | 2 ± 0.1 | 2.26 ± 0.084
SKSPSEWQDIIHQREQE [CSE2] | 3.33 ± 0.16 | 3.31 ± 0.12 | 3.25 ± 0.085 | 3.2 ± 0.14
TYDMVGGLTKQIKEIKE [RPT6] | 2.26 ± 0.15 | 2.52 ± 0.17 | 1.89 ± 0.23 | 2.56 ± 0.08
TSNASMNTTLGSIGSRK [YAR002W/NUP60] | 3.32 ± 0.1 | 3.27 ± 0.11 | 3.37 ± 0.063 | 3.26 ± 0.085
RSISEPSINLDPDNTSF [ESC2] | 2.9 ± 0.074 | 3 ± 0.057 | 3.07 ± 0.058 | 3.165 ± 0.031
DSYLDADKELSFEINVK [BRR2] | 2.83 ± 0.051 | 3.03 ± 0.041 | 3.08 ± 0.032 | 2.88 ± 0.034
HKTMSIVGVLQDDADPM [RPT2] | 1.6 ± 0.18 | 1.3 ± 0.2 | 1.58 ± 0.21 | 1.85 ± 0.13
KGNLLEGKKVMAPYLPG [RPN2] | 2.14 ± 0.061 | 1.95 ± 0.042 | 2.03 ± 0.068 | 2.14 ± 0.045
NGILPDDELMNWRRLSG [SSN2] | 2.97 ± 0.087 | 2.9 ± 0.073 | 2.98 ± 0.11 | 3.19 ± 0.091
